Measurements as given in patent KR20230139570A (dated 2023).

Tests used:
[1] = biological target: CD47 단백질 (Acrobiosystems, cat# CD7-HA2E9) (UniProt Q08722); assay: ELISA, CD47 protein coated, negative control
[2] = biological target: CD47 on CD47-overexpressing breast cancer cell line MCF-7 (UniProt Q08722); assay: flow cytometry on MCF-7 cells, secondary antibody alone (background control)
[3] = biological target: CD47 단백질 (Acrobiosystems, cat# CD7-HA2E9) (UniProt Q08722); assay: ELISA, CD47 protein coated, same method as Example 2-1
[4] = biological target: 인간 CD47 단백질 (Human CD47, SPR analyte) (human, UniProt Q08722 19-139, limits assumed); assay: SPR, Biacore 8K, antibody captured, human CD47 as analyte
Sequence of 인간 CD47 단백질 (Human CD47, SPR analyte) (Q08722 19-139 limits assumed): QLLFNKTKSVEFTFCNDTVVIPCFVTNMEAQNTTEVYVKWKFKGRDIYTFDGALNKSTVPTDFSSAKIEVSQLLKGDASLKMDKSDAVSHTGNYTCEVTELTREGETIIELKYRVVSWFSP

Row | Molecule | Kd [4] | koff [4] | kon [4] | further results
1 | 음성대조군 (negative control of the Hu3A5V10 ELISA) | – | – | – | OD450 [1]: 0.0431 OD450
2 | PE-conjugated goat anti-mouse IgG (Biolegend Inc., cat# 405307) (antibody) | – | – | – | Mean (fluorescence) [2]: 80; Median (fluorescence) [2]: 73.9
3 | Hu3A5V10 항체 (humanized 3A5 antibody, as tested in Example 4) (antibody, V domains shown) VH: EVQLVQSGSELKKPGASVKVSCKASGYTFTSYWMHWMRQAPGQGLEWIGVIDPSDSYTSYNQGFTGRFVLSVDTSVSTAYLQISSLKAEDTAVYYCARGGKRAMDYWGQGTTVTVSS VL: DVVMTQSPLSLPVTLGQPASISCRSSQSLVHSNGNTYLHWFQQRPGQSPRLLIYKVSNRFSGVPDRFSGSGSGTDFTLKISRVEAEDVGVYYCSQSTHVPFTFGGGTKLEIK | – | – | – | OD450 [3]: 2.81 OD450
4 | AHF16310 전장 항체 (full length antibody, IgG4) (antibody, V domains shown, also called AHF16310 항체) VH: EVQLVQSGSELKKPGASVKVSCKASGYTFTSYWMHWMRQAPGQGLEWIGVIDPNDSYTSYNQGFTGRFVLSVDTSVSTAYLQISSLKAEDTAVYYCARGGKRMMDYWGQGTTVTVSS VL: DVVMTQSPLSLPVTLGQPASISCRSSQSLVHSNGNTYLHWFQQRPGQSPRLLIYKVSNRFTGVPDRFSGSGSGTDFTLKISRVEAEDVGVYYCSQSTHVPFTFGGGTKLEIKR | 208 pM | 0.000458 s⁻¹ | 2.21e+06 M⁻¹ s⁻¹ | –
5 | AHF16309 전장 항체 (full length antibody, IgG4) (antibody, V domains shown, also called AHF16309 항체) VH: EVQLVQSGSELKKPGASVKVSCKASGYTFTSYWMHWMRQAPGQGLEWIGVIDPNDSYTSYNQGFTGRFVLSVDTSVSTAYLQISSLKAEDTAVYYCARGGKRMMDYWGQGTTVTVSS VL: DVVMTQSPLSLPVTLGQPASISCRSSQSLVHSNGNTYLNWFQQRPGQSPRLLIYKVSNRFPGVPDRFSGSGSGTDFTLKISRVEAEDVGVYYCSQSTHVPFTFGGGTKLEIKR | 312 pM | 0.000865 s⁻¹ | 2.78e+06 M⁻¹ s⁻¹ | –
6 | AHF16312 전장 항체 (full length antibody, IgG4) (antibody, V domains shown, also called AHF16312 항체) VH: EVQLVQSGSELKKPGASVKVSCKASGYTFTSYWMHWMRQAPGQGLEWIGVIDPNDSYTSYNQGFTGRFVLSVDTSVSTAYLQISSLKAEDTAVYYCARGGKRIMDYWGQGTTVTVSS VL: DVVMTQSPLSLPVTLGQPASISCRSSQSLVHSNGNTYLNWFQQRPGQSPRLLIYKVSNRFTGVPDRFSGSGSGTDFTLKISRVEAEDVGVYYCSQSTHVPFTFGGGTKLEIKR | 166 pM | 0.000307 s⁻¹ | 1.85e+06 M⁻¹ s⁻¹ | –
7 | Hu3A5V10 전장 항체 (full length antibody, IgG4) (antibody, V domains shown, also called U822EGG010-Hu3A5V10) VH: EVQLVQSGSELKKPGASVKVSCKASGYTFTSYWMHWMRQAPGQGLEWIGVIDPSDSYTSYNQGFTGRFVLSVDTSVSTAYLQISSLKAEDTAVYYCARGGKRAMDYWGQGTTVTVSS VL: DVVMTQSPLSLPVTLGQPASISCRSSQSLVHSNGNTYLHWFQQRPGQSPRLLIYKVSNRFSGVPDRFSGSGSGTDFTLKISRVEAEDVGVYYCSQSTHVPFTFGGGTKLEIKR | 465 pM | 0.000467 s⁻¹ | 1e+06 M⁻¹ s⁻¹ | –
